The target of this assay is T1, Biotin-HSA (human, UniProt P02768, biotinylated (sites and number not given)).
T1 construct: biotinylated, without the compound; not further described; also called biotinylated-HSA; biotinylated human albumin
In words: binding of biotinylated HSA without compound to transfected HEK293 cells, detected with avidin-alkaline phosphatase.

T1 sequence (P02768 25-609 limits assumed): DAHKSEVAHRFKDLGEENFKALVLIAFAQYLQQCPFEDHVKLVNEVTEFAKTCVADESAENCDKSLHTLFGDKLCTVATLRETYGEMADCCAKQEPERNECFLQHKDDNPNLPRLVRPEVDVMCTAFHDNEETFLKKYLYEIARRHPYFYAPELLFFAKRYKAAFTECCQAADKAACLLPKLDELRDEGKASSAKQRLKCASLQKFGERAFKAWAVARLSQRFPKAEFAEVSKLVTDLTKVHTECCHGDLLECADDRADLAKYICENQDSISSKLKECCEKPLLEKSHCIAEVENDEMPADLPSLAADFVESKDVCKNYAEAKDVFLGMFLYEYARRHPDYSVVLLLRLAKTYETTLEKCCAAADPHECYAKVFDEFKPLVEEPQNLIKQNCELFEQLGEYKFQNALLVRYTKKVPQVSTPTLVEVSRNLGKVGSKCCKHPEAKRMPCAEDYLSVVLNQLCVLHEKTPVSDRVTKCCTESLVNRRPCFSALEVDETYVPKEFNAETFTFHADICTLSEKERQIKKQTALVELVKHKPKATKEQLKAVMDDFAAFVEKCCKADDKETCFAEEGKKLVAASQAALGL

B1: R-PLXDC1 (full length human PLXDC1 with an epitope tag at the N-terminus, on transfected cells) (receptor, not shown: small tags and cut ends)
chain: LSPQPGAGHDEGPGSGWAAKGTVRGWNRRARESPGHVSEPDRTQLSQDLGGGTLAMDTLPDNRTRVVEDNHSYYVSRLYGPSEPHSRELWVDVAEANRSQVKIHTILSNTHRQASRVVLSFDFPFYGHPLRQITIATGGFIFMGDVIHRMLTATQYVAPLMANFNPGYSDNSTVVYFDNGTVFVVQWDHVYLQGWEDKGSFTFQAALHHDGRIVFAYKEIPMSVPEISSSQHPVKTGLSDAFMILNPSPDVPESRRRSIFEYHRIELDPSKVTSMSAVEFTPLPTCLQHRSCDACMSSDLTFNCSWCHVLQRCSSGFDRYRQEWMDYGCAQEAEGRMCEDFQDEDHDSASPDTSFSPYDGDLTTTSSSLFIDSLTTEDDTKLNPYAGGDGLQNNLSPKTKGTPVHLGTIVGIVLAVLLVAAIILAGIYINGHPTSNAALFFIERRPHHWPAMKFRSHPDHSTYAEVEPSGHEKEGFMEAEQC
notes: also called TEM7
In the case of B1, the binding result is recorded as “no binding”.

The record behind these values is patent US20210147525A1 (University of California, published 2021).
